Data on 17 sequences can be found in a protein production outcome set (Wang et al. 2014).

The data set is described as follows: label from the status in PepcDB records.
In the case of “TQEYLAPKTTVRVGLVQWQMRSYKTLDDLFEQVEFFVDAVSDYKSDFVLFPEYFNAPLMSKYNDKGESQAIRGLAQYTEEIRDRFINLAISYNINIITGSMPLIKEDGLLYNAGFLCRRDGTYEMYEKLHVTPDEIKSWGLSGGKQLKTFDTDCAKIGILICYDVEFPELSRLMADQGMQILFVPFLTDTQNAYSRVRVCAQARAIENECFVVIAGSVGNLPRVHNMDIQYAQSGVFTPCDFAFPTDGKRAEATPNTEMILVSDVDLDLLNELHTYGSVRNLKDRRNDVYEVRFKKP”, the protein production entry is given as “failed”. The result for “MSDHKAVHSVQAKAEGKTLVMERSFEAPRELVFKAFSGSVHLESWWGPKGWQTANSRFEFQPDGVWLYCMECRDQNQGEFYGRKSCGKAVFQEIAAPEKIVYTDMFTDEEGNVVPGMPEILNEVYFQERDVGTKLITRSHFSSPKELQQLLDKGMVEGFSSQLERLEDYLKAIR” reads “failed”; that for “MNNPQDYSHKECLKASLLETFGFDGFRPGQEQTITQLLKGQSSLSIFPTGSGKSLCYQLTALHLPHLTLVVSPLLALMKDQLSFLASKGIKAASIDSTLKGNEAQTVMAGVRDGDIKVLMVSVERFKNERFRQFIESVPVSMLVVDEAHCISEWGHNFRPDYLKLPSYCQALNISLVLLLTATATRKVKQDMAAKFAIRDEHIVQTGFYRSNLDLSVLPVTQAHKNKQLEQIISAQQGAGIVYVTLQHSAETVAQYLKQQGINACAYHAGFDSDTRSQIQQDFMAGKIQVIVATIAFGMGIDKSNIRFVIHYDLPKSIENYSQEIGRAGRDGLPSQCFTLANLDGLNTVENFVYGDTPEFTGIEMLLNTIKSEVITSTHVGISDNRSEGKWELQILQLSNAVNIKQLPLKTLLVQLELAGVIEPLYAYFADFKIKLLKPKAEIINSFNDQRKDFLQRIFNATDFKKVWGSLNFDTLLQDQSIERNRVIAALEYLQEQQLIVLETKGMTEVFNIKLNELADPSLCQTLSNYFKDNEEKEIKRIATLVRFFQLDTCLTVNLARYFDDTSFDDKRFDGNSSDNNSLDSARNSGTVPQCGHCSVCRGQVAVLEHSQAQIPWPSDEALKQGMTELAERLSGKINQPLSIESFCRFFAGMSVPLFGRNKVRQLSGFGVCEQQRYQAILEKLASLSK”, “failed”; that for “MIMKISMAMCKQPLPPSPTLDFPPARFGPNMLTLNPYGPKDKVVVIMGATGTGKSRLSVDIATRFRAEIINSDKIQVHQGLDIVTNKITSEESCGVPHHLLGVLPPEADLTAANYCHMANLSIESVLNRGKLPIIVGGSNSYVEALVDDKENKFRSRYDCCFLWVDVALPVLHGFVSERVDKMVESGMVEEVREFFDFSNSDYSRGIKKAIGFPEFDRFFRNEQFLNVEDREELLSKVLEEIKRNTFELACRQREKIERLRKVKKWSIQRVDATPVFTKRRSKMDANVAWERLVAGPSTDTVSRFLLDIASRRPLVEASTAVAAAMERELSRCLVA”, “failed”.

With “MLKTVRIIILGAMCTILSAAGFDPPQPAAAKSQADEYEYPFQDPSLPVQKRVSDLLSRLTLEEKVSLMHQYQPAVPRLGIPAFKTGTEALHGVAWLGEATVFPQAFGLAHTWDRYLIKQIGSAVGDEVRGFHHLDPAANGVNVWAPVVDLLRDPRWGRNEEGYSEDPFLTGEIATAYASGLRGDHPFYLKTVPTLKHFLAYNNETDRGFSSSSIDPRNMHEYYLKPFETAISKKAAYGLMPAYNSVNDKPAILSPLLDSTVKRRWAGDDFFIVSDAFDPSGIVNDHKYYDSHEKAHAHAVKAGIDNFTDQGENPELTRNALTGALKQGLISEKDLDQALANTFSIRFRTGEFDPDELNPYSRLTDDVINSPKHQLLAKKAAEKAIVLLKNDQDLLPFNARKNESIAVIGPFGNALYEDWYSGTMPYRKTPLDEIADKIGKDRVSFAEGLEQSGFKSALTGKFVTAGRDGKQPLTAAADKLEKSAAFDAADWGESIFTLRAQANGLYVSLQDDGRLIADQKQPNGRTVKETFQFEQQSDGTFAIKNTANGKYLTAGKDGTLTAAAEKPATAAEKFSKTIIKSGTDEAVQLAKSADKAIVFVGNNPYINGRETEDRKDITLPPAQENLLKAVSKANTNTVLVVTSSYPFALNWAKAHIPAIIYSAHGGQEAGSALADILYGDVNPGGRLTQTWHTSVKELPDMMNYDIIKGKRTYKYFVGKPLFPFGHGLSYTAFRYSDLSLSSDSIKKDGSVTIRVNVTNTGGRKGDEVVQLYTSPLFKTRVKQPNLDLKDFQRVELAPKETKTVTFKLKQTDLAFWDVTRETFAVERGPYRISVGSSAADIRKTKRIFVQGETIRERNLRRKTNAEDYDDYKGVLITEESKYGGDAVKSSTTNAWIAYHDVRFKGEKRIEAKVASSGAGEIGIFLDHPQKGKQIGSLKVPDTSGLQNWKTVKASVRKSTGTHRVFFVFKGKVAIDSFQFER”, the protein production result is listed as “failed”. With “MIETTAALAEACTELAKSEFITIDTEFLRETTFWPELCLVQMASPTLEVLVDPLAKGIDLTPMFELMANPNVVKVFHAARQDIEIIYHLGGLIPHPIFDTQVAAMVCGFGDSISYDQLVQKIKNVQIDKSSRFTDWSRRPLTEKQLDYALADVTHLRDVYLSLKAQLEREGRSLWLTEEMNILESRDTYDMHPDDAWLRLKSRLRKPTELAILKFVAAWREREARSRNVPRSRVLKDDGIFEIAQQQPKDAEALSRLRTIPKGWERSASGTAIIETVNAALALPKEEMPKAPRHSHAPEGSGAAVELLKVLLKLTADKHGVAAKVIANSDDLDKIASEGENATVAALTGWRRELFGDVALKLINGEVALRFAGKKVEAVEVEAAASES”, the protein production result was “failed”. Turning to “MADFSRLPGPNADLWDWQLLAACRGVDSSLFFHPEGERGAARSARENSAKEVCMRCPVRAECAAHALAVREPYGVWGGLTEDEREELMGRARNRLVAATASASAGGEAAGPH”, the protein production result is given as “failed”. For “MGGGGHGGGITYKGVTVHTPKTWHTVTGKGLCAVMWFWILYRAKQDGPVVMGWRHPWDGHGDHGHGDHH” the value was “failed”; for “MSLDKVLEDEVVEDTGESQVFNLLNPEFVDFDTCLDPITNELPTSETTKPAGELRREKTPAKKGNSNSSSVDHRFTSASRAFTQKKLDDLKSLFVSLASKSHSNDQYVSYPVFQEYFGLSGSLGERIFDMVTQHRKDDKMTFEDLVIAKMTFEDLVIAKVHT”, “failed”. For “MSTLQRRRVNRADSGDTSSIHSSANNTKGDKIANIAVDGDDDNGTNKKIAYDPEESKLRDNINIPTLTLMEEVLLMGLRDREGYLSFWNDSISYALRGCIIIELALRGKIRILDDSARKRFDLSERLIEVIDSSKTGEVLLDETLQLMKNDEPLSISNWIDLLSGETWNLLKINYQLKQVRERLAKGLVDKGVLRTEMKNFFLFDMATHPIADASCKEAIKRRVLSVLVSRNMELSYNEYFPETTSFKIIRTLALICGSYGANVLENVLTTLEYEKRDKAISRAEEIMAQFSQYPFDLEKETELGVSVNLNKEVKEEIENNPGHDLQLEVIAGVFEVFSRMDMLL” the value was “failed”; for “MSVSVRSYLSPTLVLLAFDWPDAQRRDDFLGFAIKRTPGFWSADGKTRAATSWLPNRLTFDGPAAHTQGDAPTDQAPIQKFMWWDARIDPPDRGRAFRYDVYPVVGTPASLRVLEADAGGCTVTLPAHVEGGVGTWFNRAVVSSQAFAKQVRALRLADGAAPSPDAARRLRTWLANDLEETFGLMLGADARRAVSAVYHLTDPLWAIPAFDAFGRAHGADALAIVYDAHETKRGSGEPPLPSPNQAAVEQLTGVATLAPRDKTRIMHDKFIVAGDEAGPARVLTGSANFTTEGITEQANVLHTFESAALAGLYNACARALASNPCVAETARLAPGWSEPVEVGTARVRVSFSPEPRGARTQIDTIVDAIRGARHSVVFCLFMPTDAALRDACFAAGDRGLMMFGLVNAISARGAQQADADRRDGKTLDAARLANLELYHRSRSNRDVIDAAYFSPATVPAGFEAELRLFPGEAPPPYPPVVVHHKFIVIDAEGANPIVYSGSANMSANSEHYNDENLLEIRDARVAGIYLAEFLRLYEHYRARALAIASRRGNGSGAGGAAGPHGGLALQPDSRWAKKYFVDASPEEKARIALAAPVAAR”, “failed”; for “MSDFVNGFWSYFIGIIAIGGIVWCVWLLYSQRRWLSTRPAGGVVEDTGHVWDGDLTELNNPVPRWWTWMYLLTCVFALGYLVLFPGVGSYQGTLGYTSVGEVKQKQAELAERVKPVYERFGGMTPEQLVADAPAREIGQRLFLNTCAQCHGSDAKGSTSFPNLTDGDWLYGGTPEIIAETIAKGRHGVMPPWKGVIDPRMAGDIAHYVRSLSGLAVDPVRVFRGKREFANYCVACHGVDAKGNQALGAPNLTDDVWLYGSSEASIVRTILDGRDNRMPAHEEVLTPEQIKLLSAWVWGLSNQAPAKAAEAAR”, “failed”. For “MASPNTTQPEIILSEEKKASLTTQSTSNNTNDGNILEEQKTLTSQQQPTPVPNTERTEDNVIENLKKTDLSNKDENTTISINTSTNTNINSNTNSNTNTNINSNINTDVNTNINTDINTNTNSNTNSNTNTNINTNANTNTNTNEKAQDEKFQYNGDVSKAFLSPPVFHLTEIMHDERCFKKTKGHVTVEINGDICIYGGMLHDKCVENFIRYVPGINLFEKMRLNSNDIVPRAFCSGNVITEDNKKNIIIFGGINEKDEIVDETYKFDFQAKKWELIGNKICPRARYKHASFSFNDFLYIHGGLDVNNSLLADMWCFSKNSWTPIKQIDRIPEPRYAHSLIFSFYGNAKLVFLFGGNKKGYNAALGDTWIFNINTNRWKEITNSSGSKPCARWGHSSQLFDNEWMIIYGGITNGWIDNYALSDMYALNIFTFSWFEVDISTSKNFDRGYYGSLCFLPYKKSLFVFGGTDNSEDHSDVFSMSPLVTYVSYKTLTGKIEQLNTRMKNINETSSENENMNISEFETKITELKEDINKINFMMKDFESKFCGKIKKLEKLNEQCEKLLSKNINTEELQNLEQRIRKLETSNVLMKHDSI” the value was “failed”; for “MSERAIAHLGPVGTYAEMAALRFQAWLTQQDQQPSRLLACRSIPATLQTLADGAVDYAVVPVENSVEGSVAATLDSLWQLPQLSIQRALILPIAHALISFESDRTAIRQVLSHPQALAQCQQWLQRHLPQAELIPANSTTEALQDLERHPQRAVIASTRAAELYQMPIQSFPINDSPDNRTRFWVISRSPTPGGACTSLNFSLDANVPGALVKPLQILADRRINLSRIESRPTKRSLGEYLFFLDLEADLRDPAIAAAVQAVADCTEQLRVLGSYDSLDFTQSVLVPAQAR”, “failed”. As for “MAPQASTRENACRSEMLSASSRGSGWPCQENPDLSIPPLRPIALSRRNGWWSGAAAVKLASGHCTGRWKMSFWYVVDAVAVGIILPWIIATYRLLEAFKRGTGAGLTKWAIYAAVCVPAMLLVMWGIQNLR”, the protein production entry is recorded as “failed”. For “MRFVATGDWQLGMTAHYLSTEARPRFHRARLDAVKRIGEIAAEQSCDFVVVCGDVFESNQLDRAIISRTFEVLAAFTVPVVLLPGNHDPLDAASIYDSHAFTSRQPGHVHVLRDSEPFEVRPGVEIIGAPWFSKRPQGDLVAQATQNLAEAAPGKVRIIAGHGAVSTLDPDRESLATIDVDSLKTVLREDRAQFVALGDRHATYAVDERIWYSGAPEVTSRREDDPGNVLLVDIDAQSHASSVEKMHIGRWSYLVVEEDVNSDEDVSHLEQRLADIPDKDSTAVWLILRGTLSTAAKSRLDDILDHATDLFALVSLWERHTDIAVVAADEDFAGLGLSGYLQESLDELAETAAGEDLSASAAQDALGLLYRFARSGS” the value was “failed”; for “MDRLNQIQIILVETSLSANIGSAARAMKTMGLSNLRLVRPKNPLDEQATALAAGAKNILDNAQIFNTFDAAIADCQLIIGTSARLRHLQSTLVEPRECGKLIINNTNQHKIALIFGRERIGLTNEELLKCHYHLNVPTNPEYESLNLAMAVQLACYEIRMAWLELQKKPIIQPLTEEKNYPTAAAMAHFFDHTERL”, “not failed”.
